According to US20130137631A1:
Substitutions are numbered along the chain they refer to.

T1: human GIP receptor (human), P48546
T1 chain: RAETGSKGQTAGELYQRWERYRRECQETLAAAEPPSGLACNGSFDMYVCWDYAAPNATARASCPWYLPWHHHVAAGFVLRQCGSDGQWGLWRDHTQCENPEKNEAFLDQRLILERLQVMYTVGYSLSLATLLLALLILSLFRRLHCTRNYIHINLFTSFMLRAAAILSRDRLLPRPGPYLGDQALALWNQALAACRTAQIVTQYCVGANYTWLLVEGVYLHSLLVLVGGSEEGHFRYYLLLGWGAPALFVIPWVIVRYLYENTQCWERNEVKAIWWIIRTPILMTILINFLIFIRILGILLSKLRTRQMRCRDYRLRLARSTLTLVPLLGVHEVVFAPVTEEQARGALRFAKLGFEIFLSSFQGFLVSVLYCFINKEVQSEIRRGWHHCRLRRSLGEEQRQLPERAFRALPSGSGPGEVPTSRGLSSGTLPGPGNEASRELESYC

B1: 0601GIP4838 (peptide)
peptide: HAEGTFISDYSIAMDKIHQQDFVNWLLAQKPKKIRYS
modifications: not checked
B2: 0601GIP4845 (peptide)
peptide: B1 peptide with H1Y, W25Q
modifications: not checked
B3: 0601GIP4865 (row r89, Gln24) (peptide)
peptide: B1 peptide with H1Y, N24Q
modifications: not checked
B4: 0601GIP4856 (peptide)
peptide: B1 peptide with H1Y, I34A
modifications: not checked
B5: 0601GIP4914 (peptide)
peptide: B1 peptide with H1Y, I34Q
modifications: not checked
B6: 0601GIP4913 (peptide)
peptide: B1 peptide with H1Y, R35Q
modifications: not checked
B7: 0601GIP4851 (peptide)
peptide: B1 peptide with H1Y, K32N
modifications: not checked
B8: 0601GIP4852 (peptide)
peptide: B1 peptide with H1Y, K33N
modifications: not checked
B9: 0601GIP4855 (peptide)
peptide: B1 peptide with H1Y, K32Q, K33Q
modifications: not checked
B10: 0601GIP4853 (peptide)
peptide: B1 peptide with H1Y, K32Q
modifications: not checked
B11: 0601GIP4854 (peptide)
peptide: B1 peptide with H1Y, K33Q
modifications: not checked
B12: 0601GIP5097 (peptide)
peptide: YAEGTFISDYSIALDKIAQQEFVNWLLAQKPSSGAPPKSK
modifications: not checked
B13: 0601GIP5098 (peptide)
peptide: B12 peptide with D15E, A18R, K38N
modifications: not checked

Target: T1, human GIP receptor (human), P48546
Test: 125I-GIP displacement, HEK-GIPR membranes

| Binder | % Inh 10 nM [%] | IC50 [nM] |
| --- | --- | --- |
| B1 | 34.3 | – |
| B2 | 69.5 | – |
| B3 | 85.6 | – |
| B4 | 83.7 | – |
| B5 | 96.3 | – |
| B6 | 92.1 | – |
| B7 | 87 | – |
| B8 | 90 | – |
| B9 | 78.8 | 0.72 |
| B10 | 91 | – |
| B11 | 93.5 | – |
| B12 | 101 | – |
| B13 | 97 | – |
